Measured values: patent publication US20250163167A1 (SYNTHEKINE, published 2025)

T1: human IL-10 receptor (hIL-10R alpha and beta chains) on HEK-Blue IL-10 reporter cells (human, UniProt Q13651 22-578; Q08334 20-325)
T1 sequence 1: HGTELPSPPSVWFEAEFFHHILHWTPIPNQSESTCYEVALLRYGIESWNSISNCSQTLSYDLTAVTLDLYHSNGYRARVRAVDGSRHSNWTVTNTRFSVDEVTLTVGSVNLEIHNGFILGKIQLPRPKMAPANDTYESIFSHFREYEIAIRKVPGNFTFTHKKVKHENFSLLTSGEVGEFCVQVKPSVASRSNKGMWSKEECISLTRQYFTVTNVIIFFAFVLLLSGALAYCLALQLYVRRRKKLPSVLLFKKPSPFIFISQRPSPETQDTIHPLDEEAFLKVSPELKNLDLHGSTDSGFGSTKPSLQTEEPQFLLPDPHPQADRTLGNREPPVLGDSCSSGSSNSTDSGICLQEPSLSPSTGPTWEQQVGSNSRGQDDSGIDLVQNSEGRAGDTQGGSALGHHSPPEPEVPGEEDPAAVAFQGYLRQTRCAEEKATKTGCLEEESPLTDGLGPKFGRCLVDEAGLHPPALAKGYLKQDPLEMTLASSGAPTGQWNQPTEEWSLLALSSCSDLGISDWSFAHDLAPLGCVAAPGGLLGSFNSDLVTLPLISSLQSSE
T1 sequence 2: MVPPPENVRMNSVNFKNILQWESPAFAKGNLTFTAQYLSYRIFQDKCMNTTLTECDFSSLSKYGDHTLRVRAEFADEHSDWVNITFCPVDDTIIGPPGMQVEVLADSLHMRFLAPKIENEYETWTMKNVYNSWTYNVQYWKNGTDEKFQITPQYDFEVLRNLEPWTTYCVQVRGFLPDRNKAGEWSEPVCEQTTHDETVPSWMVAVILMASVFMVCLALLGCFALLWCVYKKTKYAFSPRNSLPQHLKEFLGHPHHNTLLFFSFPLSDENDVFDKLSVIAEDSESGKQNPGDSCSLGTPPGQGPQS


target: T1, human IL-10 receptor (hIL-10R alpha and …); test: cell-based or functional assay

Row | Abs 630 (25 nM) [Abs 630] | Abs 630 (100 nM) [Abs 630] | Binder
1 | 0.61 | 0.44 | IL10R binding molecule of SEQ ID NO: 324 (bispecific antibody) QVQLQESGGGSVQAGGSLRLSCAASRYTYNSYCMGWFRQAPGKEREGVATIDSDGMTRYADSVKGRFTISKDNAKNTLYLQMNSLKPEDTAMYYCAADADCTIAAMTTNPLGQGTQVTVSSGGGSQVQLQESGGGSVQAGGSLRLSCGASGYTYSSYCMGWFRQVPGKEREGVAVIDSDGSTSYADSVKGRFTISKDNGKNTLYLQMNSLKPEDTAMYYCAADLGHYRPPCGVLYLGMDYWGKGTQVTVSSASHHHHHH
2 | 0.5 | 0.45 | IL10R binding molecule of SEQ ID NO: 318 (bispecific antibody) QVQLQESGGGSVQAGGSLRLSCAASGYTYSSYCMGWFRQAPGKEREGVAHIDSDGSTSYADSVKGRFTISKDNAKNTLYLQMNSLKPEDTAMYYCAADPIPGPGYCDGGPNKYWGQGTQVTVSSGGGSQVQLQESGGGSVQAGGSLRLSCAASGYSNCSYDMTWYRQAPGKEREFVSAIHSDGSTRYADSVKGRFFISQDNAKNTVYLQMNSLKPEDTAMYYCKTDPLHCRAHGGSWYSVRANYWGQGTQVTVSSASHHHHHH
3 | 0.51 | 0.41 | IL10R binding molecule of SEQ ID NO: 315 (bispecific antibody) QVQLQESGGGSVQAGGSLRLSCAASGYTYSSYCMGWFRQAPGKEREGVAHIDSDGSTSYADSVKGRFTISKDNAKNTLYLQMNSLKPEDTAMYYCAADPIPGPGYCDGGPNKYWGQGTQVTVSSGGGSQVQLQESGGGSVQAGGSLRLSCAVSGYAYSTYCMGWFRQAPGKEREGVAAIDSGGSTSYADSVKGRFTISKDNAKNTLYLRMNSLKPEDTAMYYCAAVPPPPDGGSCLFLGPEIKVSKADFRYWGQGTQVTVSSASHHHHHH
4 | 0.49 | 0.42 | IL10R binding molecule of SEQ ID NO: 314 (bispecific antibody) QVQLQESGGGSVQAGGSLRLSCAASGYTYSSYCMGWFRQAPGKEREGVAHIDSDGSTSYADSVKGRFTISKDNAKNTLYLQMNSLKPEDTAMYYCAADPIPGPGYCDGGPNKYWGQGTQVTVSSGGGSQVQLQESGGGSVQAGGSLRLSCAASGYTYSMYCMGWFRQAPGKEREGVAQINSDGSTSYADSVKGRFTISKDNAKNTLYLQMNSLKPEDTAMYYCAADSRVYGGSWYERLCGPYTYEYNYWGQGTQVTVSSASHHHHHH
5 | 0.44 | 0.34 | IL10R binding molecule of SEQ ID NO: 261 (bispecific antibody) QVQLQESGGGSVQAGGSLRLSCAASRYLYSIDYMAWFRQSPGKEREPVAVIYTASGATFYPDSVKGRFTISQDNAKMTVYLQMNSLKSEDTAMYYCAAVRKTDSYLFDAQSFTYWGQGTQVTVSSGGGSQVQLQESGGGSVQAGGSLRLSCAASGYSYSSYCMGWFRQAPGKEREGVATIDSDGMTRYADSVKGRFTISKDNAKNTLYLQMNSLKPEDTAMYYCAAPLYDCDSGAVGRNPPYWGQGTQVTVSSASHHHHHH
6 | 0.47 | 0.56 | IL10R binding molecule of SEQ ID NO: 326 (bispecific antibody) QVQLQESGGGSVQAGGSLRLSCTVSRYTASVNYMGWFRQAPGKEREGVATIFTGAGTTYYANSVKGRFTISRDNAKNTAYLQMNSLKPEDTAIYYCAVDFRGGLLYRPAYEYTYRGQGTQVTVSSGGGSQVQLQESGGGSVQAGGSLRLSCAASRYLYSIDYMAWFRQSPGKEREPVAVIYTASGATFYPDSVKGRFTISQDNAKMTVYLQMNSLKSEDTAMYYCAAVRKTDSYLFDAQSFTYWGQGTQVTVSSASHHHHHH
7 | 0.46 | 0.41 | IL10R binding molecule of SEQ ID NO: 322 (bispecific antibody) QVQLQESGGGSVQAGGSLRLSCAASRYTYNSYCMGWFRQAPGKEREGVATIDSDGMTRYADSVKGRFTISKDNAKNTLYLQMNSLKPEDTAMYYCAADADCTIAAMTTNPLGQGTQVTVSSGGGSQVQLQESGGGSVQAGGSLRLSCAVSGYAYSTYCMGWFRQAPGKEREGVAAIDSGGSTSYADSVKGRFTISKDNAKNTLYLRMNSLKPEDTAMYYCAAVPPPPDGGSCLFLGPEIKVSKADFRYWGQGTQVTVSSASHHHHHH
8 | 0.48 | 0.39 | IL10R binding molecule of SEQ ID NO: 316 (bispecific antibody) QVQLQESGGGSVQAGGSLRLSCAASGYTYSSYCMGWFRQAPGKEREGVAHIDSDGSTSYADSVKGRFTISKDNAKNTLYLQMNSLKPEDTAMYYCAADPIPGPGYCDGGPNKYWGQGTQVTVSSGGGSQVQLQESGGGSVQAGGSLRLSCTVSGYTYSSNCMGWFRQAPGKEREGVATIYTGGGNTYYADSVKGRFTISQDNAKNTVYLQMNNLKPEDTAMYYCAAEPLSRVYGGSCPTPTFDYWGQGTQVTVSSASHHHHHH
9 | 0.45 | 0.38 | IL10R binding molecule of SEQ ID NO: 317 (bispecific antibody) QVQLQESGGGSVQAGGSLRLSCAASGYTYSSYCMGWFRQAPGKEREGVAHIDSDGSTSYADSVKGRFTISKDNAKNTLYLQMNSLKPEDTAMYYCAADPIPGPGYCDGGPNKYWGQGTQVTVSSGGGSQVQLQESGGGSVQAGGSLRLSCGASGYTYSSYCMGWFRQVPGKEREGVAVIDSDGSTSYADSVKGRFTISKDNGKNTLYLQMNSLKPEDTAMYYCAADLGHYRPPCGVLYLGMDYWGKGTQVTVSSASHHHHHH
10 | 0.44 | 0.34 | IL10R binding molecule of SEQ ID NO: 328 (bispecific antibody) QVQLQESGGGSVQAGGSLRLSCTVSRYTASVNYMGWFRQAPGKEREGVATIFTGAGTTYYANSVKGRFTISRDNAKNTAYLQMNSLKPEDTAIYYCAVDFRGGLLYRPAYEYTYRGQGTQVTVSSGGGSQVQLQESGGGSVQAGGSLRLSCAASGYTYSMYCMGWFRQAPGKEREGVAQINSDGSTSYADSVKGRFTISKDNAKNTLYLQMNSLKPEDTAMYYCAADSRVYGGSWYERLCGPYTYEYNYWGQGTQVTVSSASHHHHHH
11 | 0.64 | 0.38 | IL10R binding molecule of SEQ ID NO: 323 (bispecific antibody) QVQLQESGGGSVQAGGSLRLSCAASRYTYNSYCMGWFRQAPGKEREGVATIDSDGMTRYADSVKGRFTISKDNAKNTLYLQMNSLKPEDTAMYYCAADADCTIAAMTTNPLGQGTQVTVSSGGGSQVQLQESGGGSVQAGGSLRLSCTVSGYTYSSNCMGWFRQAPGKEREGVATIYTGGGNTYYADSVKGRFTISQDNAKNTVYLQMNNLKPEDTAMYYCAAEPLSRVYGGSCPTPTFDYWGQGTQVTVSSASHHHHHH
12 | 0.52 | 0.54 | IL10R binding molecule of SEQ ID NO: 327 (bispecific antibody) QVQLQESGGGSVQAGGSLRLSCTVSRYTASVNYMGWFRQAPGKEREGVATIFTGAGTTYYANSVKGRFTISRDNAKNTAYLQMNSLKPEDTAIYYCAVDFRGGLLYRPAYEYTYRGQGTQVTVSSGGGSQVQLQESGGGSVQAGGSLRLSCAASRFTYSSYCMGWFRQAPGKEREGVASIDSDGSTSYTDSVKGRFTISKDNAKNTLYLQMNSLKPEDTAMYYCALDLMSTVVPGFCGFLLSAGMDYWGKGTQVTVSSASHHHHHH
13 | 0.46 | 0.4 | IL10R binding molecule of SEQ ID NO: 321 (bispecific antibody) QVQLQESGGGSVQAGGSLRLSCAASRYTYNSYCMGWFRQAPGKEREGVATIDSDGMTRYADSVKGRFTISKDNAKNTLYLQMNSLKPEDTAMYYCAADADCTIAAMTTNPLGQGTQVTVSSGGGSQVQLQESGGGSVQAGGSLRLSCAASGYTYSMYCMGWFRQAPGKEREGVAQINSDGSTSYADSVKGRFTISKDNAKNTLYLQMNSLKPEDTAMYYCAADSRVYGGSWYERLCGPYTYEYNYWGQGTQVTVSSASHHHHHH
14 | 0.47 | 0.36 | IL10R binding molecule of SEQ ID NO: 319 (bispecific antibody) QVQLQESGGGSVQAGGSLRLSCAASRYTYNSYCMGWFRQAPGKEREGVATIDSDGMTRYADSVKGRFTISKDNAKNTLYLQMNSLKPEDTAMYYCAADADCTIAAMTTNPLGQGTQVTVSSGGGSQVQLQESGGGSVQAGGSLRLSCAASRYLYSIDYMAWFRQSPGKEREPVAVIYTASGATFYPDSVKGRFTISQDNAKMTVYLQMNSLKSEDTAMYYCAAVRKTDSYLFDAQSFTYWGQGTQVTVSSASHHHHHH
15 | 0.49 | 0.42 | IL10R binding molecule of SEQ ID NO: 325 (bispecific antibody) QVQLQESGGGSVQAGGSLRLSCAASRYTYNSYCMGWFRQAPGKEREGVATIDSDGMTRYADSVKGRFTISKDNAKNTLYLQMNSLKPEDTAMYYCAADADCTIAAMTTNPLGQGTQVTVSSGGGSQVQLQESGGGSVQAGGSLRLSCAASGYSNCSYDMTWYRQAPGKEREFVSAIHSDGSTRYADSVKGRFFISQDNAKNTVYLQMNSLKPEDTAMYYCKTDPLHCRAHGGSWYSVRANYWGQGTQVTVSSASHHHHHH
16 | 0.54 | 0.41 | IL10R binding molecule of SEQ ID NO: 320 (bispecific antibody) QVQLQESGGGSVQAGGSLRLSCAASRYTYNSYCMGWFRQAPGKEREGVATIDSDGMTRYADSVKGRFTISKDNAKNTLYLQMNSLKPEDTAMYYCAADADCTIAAMTTNPLGQGTQVTVSSGGGSQVQLQESGGGSVQAGGSLRLSCAASRFTYSSYCMGWFRQAPGKEREGVASIDSDGSTSYTDSVKGRFTISKDNAKNTLYLQMNSLKPEDTAMYYCALDLMSTVVPGFCGFLLSAGMDYWGKGTQVTVSSASHHHHHH
